Reference: patent publication US20190119318A1
Where “and” joins values, the source holds several entries; their conditions need not be identical. Identical values can stand only once.

What was measured:
[1] = molecular target: human polyclonal IgG (Gammanorm) (human); test: column DBC; base A40; ligand 11.03 mg/ml
[2] = molecular target: human polyclonal IgG (Gammanorm) (human); test: column DBC; ligand 13 mg/ml; before incubation in 1 M NaOH
[3] = molecular target: human polyclonal IgG (Gammanorm) (human); test: column DBC; base A27; ligand 7.5 mg/ml
[4] = molecular target: human polyclonal IgG (Gammanorm) (human); test: column DBC; base H40; ligand 9.1 mg/ml
[5] = molecular target: human polyclonal IgG (Gammanorm) (human); test: column DBC; base A65b; ligand 8.8 mg/ml
[6] = molecular target: human polyclonal IgG (Gammanorm) (human); test: column DBC; base A62a; ligand 7.5 mg/ml
[7] = molecular target: human polyclonal IgG (Gammanorm) (human); test: column DBC; base I1; ligand 11.2 mg/ml
[8] = molecular target: human polyclonal IgG (Gammanorm) (human); test: column DBC; base C4; ligand […]
[9] = molecular target: human polyclonal IgG (Gammanorm) (human); test: column DBC; base A38; ligand 7.5 mg/ml
[10] = molecular target: human polyclonal IgG (Gammanorm) (human); test: SPR; after 100 CIP cycles 1 M NaOH
[11] = molecular target: human polyclonal IgG (Gammanorm) (human); test: column DBC; base A42; ligand 6.72 mg/ml
[12] = molecular target: human polyclonal IgG (Gammanorm) (human); test: column DBC; base A28; ligand 15.8 mg/ml
[13] = molecular target: human polyclonal IgG (Gammanorm) (human); test: column DBC; base A40; ligand 13.15 mg/ml
[14] = molecular target: human polyclonal IgG (Gammanorm) (human); test: column DBC; base A65a; ligand 6.6 mg/ml
[15] = molecular target: human polyclonal IgG (Gammanorm) (human); test: SPR; after 200 CIP cycles 0.5 M NaOH
[16] = molecular target: human polyclonal IgG (Gammanorm) (human); test: column DBC; base A20; ligand […]
[17] = molecular target: human polyclonal IgG (Gammanorm) (human); test: column DBC; base A62a; ligand 6.4 mg/ml
[18] = molecular target: human polyclonal IgG (Gammanorm) (human); test: column DBC; base C1; ligand 10.8 mg/ml
[19] = molecular target: human polyclonal IgG (Gammanorm) (human); test: column DBC; base H40; ligand […]
[20] = molecular target: human polyclonal IgG (Gammanorm) (human); test: column DBC; base A18; ligand 13.4 mg/ml
[21] = molecular target: human polyclonal IgG (Gammanorm) (human); test: column DBC; base A38; ligand 11.34 mg/ml
[22] = molecular target: human polyclonal IgG (Gammanorm) (human); test: column DBC; base A28; ligand 11.9 mg/ml
[23] = molecular target: human polyclonal IgG (Gammanorm) (human); test: column DBC; ligand 20 mg/ml; before incubation in 1 M NaOH
[24] = molecular target: human polyclonal IgG (Gammanorm) (human); test: column DBC; base A65a; ligand 13.1 mg/ml
[25] = molecular target: human polyclonal IgG (Gammanorm) (human); test: column DBC; base A28; ligand 7.9 mg/ml
[26] = molecular target: human polyclonal IgG (Gammanorm) (human); test: column DBC; base A29; ligand 11 mg/ml
[27] = molecular target: human polyclonal IgG (Gammanorm) (human); test: column DBC; base A27; ligand […]
[28] = molecular target: human polyclonal IgG (Gammanorm) (human); test: column DBC; base A32; ligand 13.3 mg/ml
[29] = molecular target: human polyclonal IgG (Gammanorm) (human); test: SPR; vs reference Zvar4; 1 M NaOH
[30] = molecular target: human polyclonal IgG (Gammanorm) (human); test: column DBC; base A63a; ligand 6.1 mg/ml
[31] = molecular target: human polyclonal IgG (Gammanorm) (human); test: column DBC; base I1; ligand 6.1 mg/ml
[32] = molecular target: human polyclonal IgG (Gammanorm) (human); test: column DBC; base C4; ligand 10.1 mg/ml
[33] = molecular target: human polyclonal IgG (Gammanorm) (human); test: SPR; vs reference Zvar4; 0.5 M NaOH
[34] = molecular target: human polyclonal IgG (Gammanorm) (human); test: column DBC; base A29; ligand 7.3 mg/ml
[35] = molecular target: human polyclonal IgG (Gammanorm) (human); test: column DBC; base A63a; ligand 14.0 mg/ml
[36] = molecular target: human polyclonal IgG (Gammanorm) (human); test: column DBC; base A40; ligand 6.1 mg/ml

## Zvar(Q9A,N11E,Q40V,A42K,N43A,L44I)4 (designed binder)
[1]
  Qb10% 2.4 min: 55 mg/mL
  Qb10% 6 min: 73.8 mg/mL
[2]
  Qb10%, 6 min, before incubation: 79 mg/mL
[3]
  Qb10% 2.4 min: 29.2 mg/mL
  Qb10% 6 min: 48.7 mg/mL
[4]
  Qb10% 2.4 min: 52 mg/mL
  Qb10% 6 min: 67 mg/mL
[5]
  Qb10% 2.4 min: 49 mg/mL
  Qb10% 6 min: 56 mg/mL
[6]
  Qb10% 2.4 min: 47 mg/mL
  Qb10% 6 min: 56 mg/mL
[7]
  Qb10% 2.4 min: 57 mg/mL
  Qb10% 6 min: 68 mg/mL
[8]
  Qb10% 2.4 min: 59 mg/mL
  Qb10% 6 min: 67 mg/mL
[9]
  Qb10% 2.4 min: 44 mg/mL
  Qb10% 6 min: 58 mg/mL
[10]
  remaining capacity 100 cycles: 56%
[11]
  Qb10% 2.4 min: 33.6 mg/mL
  Qb10% 6 min: 50 mg/mL
[12]
  Qb10% 2.4 min: 37 mg/mL
  Qb10% 6 min: 67 mg/mL
[13]
  Qb10% 2.4 min: 56.9 mg/mL
  Qb10% 6 min: 71.1 mg/mL
[14]
  Qb10% 2.4 min: 42 mg/mL
  Qb10% 6 min: 47 mg/mL
[15]
  remaining capacity 200 cycles: 74%
[16]
  Qb10% 2.4 min: 49 mg/mL
  Qb10% 6 min: 67 mg/mL
[17]
  Qb10% 2.4 min: 43 mg/mL
  Qb10% 6 min: 45 mg/mL
[18]
  Qb10% 2.4 min: 43 mg/mL
  Qb10% 6 min: 60 mg/mL
[19]
  Qb10% 2.4 min: 47 mg/mL
  Qb10% 6 min: 52 mg/mL
[20]
  Qb10% 6 min: 63 mg/mL
[21]
  Qb10% 2.4 min: 48.1 mg/mL
  Qb10% 6 min: 72.8 mg/mL
[22]
  Qb10% 2.4 min: 39.9 mg/mL and 40 mg/mL
  Qb10% 6 min: 63.8 mg/mL and 64 mg/mL
[23]
  Qb10%, 6 min, before incubation: 73 mg/mL
[24]
  Qb10% 2.4 min: 56 mg/mL
  Qb10% 6 min: 64 mg/mL
[25]
  Qb10% 2.4 min: 42.4 mg/mL and 42 mg/mL
  Qb10% 6 min: 58.2 mg/mL and 58 mg/mL
[26]
  Qb10% 2.4 min: 34.9 mg/mL
  Qb10% 6 min: 64.7 mg/mL
[27]
  Qb10% 2.4 min: 24.8 mg/mL
  Qb10% 6 min: 55.6 mg/mL
[28]
  Qb10% 2.4 min: 37 mg/mL
  Qb10% 6 min: 66 mg/mL
[29]
  capacity relative to ref. 100 cycles: 2.07
[30]
  Qb10% 2.4 min: 39 mg/mL
  Qb10% 6 min: 44 mg/mL
[31]
  Qb10% 2.4 min: 45 mg/mL
  Qb10% 6 min: 51 mg/mL
[32]
  Qb10% 2.4 min: 55 mg/mL
  Qb10% 6 min: 63 mg/mL
[33]
  capacity relative to ref. 100 cycles: 1.34
  capacity relative to ref. 200 cycles: 2.06
  capacity relative to ref. 300 cycles: 3.56
[34]
  Qb10% 2.4 min: 36.3 mg/mL
  Qb10% 6 min: 51.8 mg/mL
[35]
  Qb10% 2.4 min: 48 mg/mL
  Qb10% 6 min: 56 mg/mL
[36]
  Qb10% 2.4 min: 49 mg/mL
  Qb10% 6 min: 59 mg/mL
